Measurements: publication PMC4358367, “Structural basis of diverse membrane target recognitions by ankyrins” (eLife, 2014)

T1: Nav1.2_ABD (ankyrin binding domain of Nav1.2, residues 1035–1129)
T1 chain: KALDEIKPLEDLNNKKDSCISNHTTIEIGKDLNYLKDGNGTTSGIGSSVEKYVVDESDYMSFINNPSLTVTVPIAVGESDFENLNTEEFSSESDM

T2: Nfasc_ABD (28-residue fragment of the neurofascin cytoplasmic tail, residues 1187–1214)
T2 chain: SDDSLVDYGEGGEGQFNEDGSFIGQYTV

T3: AnkG_repeats (Rattus norvegicus, UniProt O70511)
T3 construct: thioredoxin-His6 (N); made in house; host or cells: Escherichia coli BL21 (DE3)
T3 sequence (O70511 38-855): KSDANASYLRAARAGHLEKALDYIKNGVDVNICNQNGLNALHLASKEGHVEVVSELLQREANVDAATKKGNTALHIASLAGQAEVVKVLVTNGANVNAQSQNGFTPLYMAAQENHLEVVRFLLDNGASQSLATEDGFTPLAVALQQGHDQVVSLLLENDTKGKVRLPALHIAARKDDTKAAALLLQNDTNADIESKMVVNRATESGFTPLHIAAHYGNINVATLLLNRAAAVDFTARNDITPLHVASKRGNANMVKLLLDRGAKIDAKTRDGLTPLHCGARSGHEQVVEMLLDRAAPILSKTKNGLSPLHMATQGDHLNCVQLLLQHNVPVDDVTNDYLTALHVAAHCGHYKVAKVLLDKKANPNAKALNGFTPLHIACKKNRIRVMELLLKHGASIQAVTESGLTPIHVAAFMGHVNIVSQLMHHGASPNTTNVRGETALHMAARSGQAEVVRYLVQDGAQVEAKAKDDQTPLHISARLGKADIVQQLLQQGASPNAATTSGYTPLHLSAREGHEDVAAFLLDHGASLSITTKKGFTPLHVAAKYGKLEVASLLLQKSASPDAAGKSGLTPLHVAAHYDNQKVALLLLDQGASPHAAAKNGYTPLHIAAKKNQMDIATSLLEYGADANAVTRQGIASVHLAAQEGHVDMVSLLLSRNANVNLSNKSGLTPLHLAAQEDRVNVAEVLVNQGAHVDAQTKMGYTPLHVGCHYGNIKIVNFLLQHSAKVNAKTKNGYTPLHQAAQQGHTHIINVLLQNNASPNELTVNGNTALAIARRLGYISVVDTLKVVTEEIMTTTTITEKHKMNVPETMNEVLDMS


Experiments:
[1] = target: T1, Nav1.2_ABD (ankyrin binding domain of …); assay: ITC; conditions: chain shown with the change
[2] = target: T1, Nav1.2_ABD (ankyrin binding domain of …); assay: ITC; conditions: chain shown with the change
[3] = target: T2, Nfasc_ABD (28-residue fragment of the …); assay: ITC; conditions: chain shown with the change;; parent: 0.21 ± 0.02
[4] = target: T1, Nav1.2_ABD (ankyrin binding domain of …); assay: ITC; conditions: chain shown with the change
[5] = target: T1, Nav1.2_ABD (ankyrin binding domain of …); assay: ITC; conditions: chain shown with the change
AnkG_repeats = target: T3, AnkG_repeats; assay: ITC binding to AnkG_repeats WT; conditions: 25°C, 50 mM Tris, 100 mM NaCl, 1 mM EDTA, 1 mM DTT, pH 7.5, one-site binding model, AnkG_repeats WT
Excerpt: The coding sequences of AnkB_repeats (residues 28–873) were PCR amplified using the full-length human 220 kDa AnkB as the template. The coding sequences of the AnkR constructs, including AnkR_repeats (residues 42–853), and the full length AnkR C-terminal domain (residues 1529–1907), were PCR amplified from a mouse muscle cDNA library. The coding sequence of AnkG_repeats (residues 38–855) were PCR amplified using the full-length rat 190 kDa AnkG as the template. The fusion construct of AnkR_AS and AnkB_repeats was made by standard two-step PCR with a coding sequence of thrombin recognition residues ‘GSLVPRGS’ as the linker. This construct was used to crystallize and determine the complex structure. The same strategy was used in making other fusion constructs, including the Nav1.2_ABD-C/AnkB_repeats_R1–9 fusion construct containing residues 1103–1129 from mouse Nav1.2 and human AnkB residues 28–318 followed by a capping sequence corresponding to the αB of R24 (residues 814–822) and the AnkR_AS/AnkG_repeats fusion construct. For truncation mutations of ANK repeats constructs, the same capping sequence was added to the appropriate region of the C-terminus of each construct for protein stabilization. Mouse Nav1.2 (NP_001092768.1) and mouse neurofascin (CAD65849.1) were used here for studying their interaction with ankyrins. Peptides for mouse KCNQ2 (NP_034741.2, residues 826–845) and mouse Cav1.3 (NP_083257.2, residues 2134–2166) were commercially synthesized. For simplicity, we used human 220 kDa AnkB for the amino acid numbering throughout the manuscript. For the corresponding point mutations made on AnkG_repeats, each residue number should be increased by 10. All point mutations were created using the Quick Change site-directed mutagenesis kit and confirmed by DNA sequencing. […]
Isothermal titration calorimetry (ITC) measurements were carried out on a VP-ITC MicroCal calorimeter (MicroCal, Northampton, MA) at 25°C. […] The titration data were analyzed using the program Origin 7.0 and fitted by the one-site binding model.

Molecule | Kd [1] [µM] | Kd [2] [µM] | Kd [3] [µM] | Kd [4] [µM] | Kd [5] [µM] | Kd (AnkG_repeats) [µM] | Kd (AnkG_repeats; listed as ABD-N) [µM]
AnkG_repeats (24 ANK repeats of rat 190 kDa ankyrin-G, residues 38–855), O70511 F131Q; F164Q (protein) KSDANASYLRAARAGHLEKALDYIKNGVDVNICNQNGLNALHLASKEGHVEVVSELLQREANVDAATKKGNTALHIASLAGQAEVVKVLVTNGANVNAQSQNGQTPLYMAAQENHLEVVRFLLDNGASQSLATEDGQTPLAVALQQGHDQVVSLLLENDTKGKVRLPALHIAARKDDTKAAALLLQNDTNADIESKMVVNRATESGFTPLHIAAHYGNINVATLLLNRAAAVDFTARNDITPLHVASKRGNANMVKLLLDRGAKIDAKTRDGLTPLHCGARSGHEQVVEMLLDRAAPILSKTKNGLSPLHMATQGDHLNCVQLLLQHNVPVDDVTNDYLTALHVAAHCGHYKVAKVLLDKKANPNAKALNGFTPLHIACKKNRIRVMELLLKHGASIQAVTESGLTPIHVAAFMGHVNIVSQLMHHGASPNTTNVRGETALHMAARSGQAEVVRYLVQDGAQVEAKAKDDQTPLHISARLGKADIVQQLLQQGASPNAATTSGYTPLHLSAREGHEDVAAFLLDHGASLSITTKKGFTPLHVAAKYGKLEVASLLLQKSASPDAAGKSGLTPLHVAAHYDNQKVALLLLDQGASPHAAAKNGYTPLHIAAKKNQMDIATSLLEYGADANAVTRQGIASVHLAAQEGHVDMVSLLLSRNANVNLSNKSGLTPLHLAAQEDRVNVAEVLVNQGAHVDAQTKMGYTPLHVGCHYGNIKIVNFLLQHSAKVNAKTKNGYTPLHQAAQQGHTHIINVLLQNNASPNELTVNGNTALAIARRLGYISVVDTLKVVTEEIMTTTTITEKHKMNVPETMNEVLDMS | 6.6 | 6.6 |  |  |  |  | 
AnkG_repeats (24 ANK repeats of rat 190 kDa ankyrin-G, residues 38–855), O70511 L366Q; F399Q; L432Q (protein) KSDANASYLRAARAGHLEKALDYIKNGVDVNICNQNGLNALHLASKEGHVEVVSELLQREANVDAATKKGNTALHIASLAGQAEVVKVLVTNGANVNAQSQNGFTPLYMAAQENHLEVVRFLLDNGASQSLATEDGFTPLAVALQQGHDQVVSLLLENDTKGKVRLPALHIAARKDDTKAAALLLQNDTNADIESKMVVNRATESGFTPLHIAAHYGNINVATLLLNRAAAVDFTARNDITPLHVASKRGNANMVKLLLDRGAKIDAKTRDGLTPLHCGARSGHEQVVEMLLDRAAPILSKTKNGLSPLHMATQGDHLNCVQLLLQHNVPVDDVTNDYQTALHVAAHCGHYKVAKVLLDKKANPNAKALNGQTPLHIACKKNRIRVMELLLKHGASIQAVTESGQTPIHVAAFMGHVNIVSQLMHHGASPNTTNVRGETALHMAARSGQAEVVRYLVQDGAQVEAKAKDDQTPLHISARLGKADIVQQLLQQGASPNAATTSGYTPLHLSAREGHEDVAAFLLDHGASLSITTKKGFTPLHVAAKYGKLEVASLLLQKSASPDAAGKSGLTPLHVAAHYDNQKVALLLLDQGASPHAAAKNGYTPLHIAAKKNQMDIATSLLEYGADANAVTRQGIASVHLAAQEGHVDMVSLLLSRNANVNLSNKSGLTPLHLAAQEDRVNVAEVLVNQGAHVDAQTKMGYTPLHVGCHYGNIKIVNFLLQHSAKVNAKTKNGYTPLHQAAQQGHTHIINVLLQNNASPNELTVNGNTALAIARRLGYISVVDTLKVVTEEIMTTTTITEKHKMNVPETMNEVLDMS | 1.1 |  | 6 | 1.1 |  |  | 
AnkG_repeats (24 ANK repeats of rat 190 kDa ankyrin-G, residues 38–855), O70511 I267Q; L300Q (protein) KSDANASYLRAARAGHLEKALDYIKNGVDVNICNQNGLNALHLASKEGHVEVVSELLQREANVDAATKKGNTALHIASLAGQAEVVKVLVTNGANVNAQSQNGFTPLYMAAQENHLEVVRFLLDNGASQSLATEDGFTPLAVALQQGHDQVVSLLLENDTKGKVRLPALHIAARKDDTKAAALLLQNDTNADIESKMVVNRATESGFTPLHIAAHYGNINVATLLLNRAAAVDFTARNDQTPLHVASKRGNANMVKLLLDRGAKIDAKTRDGQTPLHCGARSGHEQVVEMLLDRAAPILSKTKNGLSPLHMATQGDHLNCVQLLLQHNVPVDDVTNDYLTALHVAAHCGHYKVAKVLLDKKANPNAKALNGFTPLHIACKKNRIRVMELLLKHGASIQAVTESGLTPIHVAAFMGHVNIVSQLMHHGASPNTTNVRGETALHMAARSGQAEVVRYLVQDGAQVEAKAKDDQTPLHISARLGKADIVQQLLQQGASPNAATTSGYTPLHLSAREGHEDVAAFLLDHGASLSITTKKGFTPLHVAAKYGKLEVASLLLQKSASPDAAGKSGLTPLHVAAHYDNQKVALLLLDQGASPHAAAKNGYTPLHIAAKKNQMDIATSLLEYGADANAVTRQGIASVHLAAQEGHVDMVSLLLSRNANVNLSNKSGLTPLHLAAQEDRVNVAEVLVNQGAHVDAQTKMGYTPLHVGCHYGNIKIVNFLLQHSAKVNAKTKNGYTPLHQAAQQGHTHIINVLLQNNASPNELTVNGNTALAIARRLGYISVVDTLKVVTEEIMTTTTITEKHKMNVPETMNEVLDMS | 0.22 |  | 2.8 |  | 0.22 |  | 
ABD-N (1035 - 1102): N-terminal 68-residue fragment of Nav1.2 loop 2 (residues 1035–1102) (protein, UniProt Q99250 1035-1102, looked up, fragment) ALDEIKPLEDLNNKKDSCISNHTTIEIGKDLNYLKDGNGTTSGIGSSVEKYVVDESDYMSFINNPSLT |  |  |  |  |  | 8.1 ± 1.1 | ~8
